Reference: paper PMC7337899, “E. coli Rep helicase and RecA recombinase unwind G4 DNA and are important for resistance to G4-stabilizing ligands” (Nucleic Acids Research, 2020)

Substrate: Nc1ncnc2c1ncn2[C@@H]1O[C@H](COP(=O)(O)OP(=O)(O)OP(=O)(O)O)[C@@H](O)[C@H]1O
Assay: purified protein
Format: biochemical, Escherichia coli
Conditions: non-parallel (TTAGGG)4-T15 G4 DNA, 100 nM protein, 1 μM to 2 mM ATP, 50 mM KCl, 3 mM MgCl2, pH 7.5, ~23 °C

B1: UvrD (Escherichia coli K-12) (protein)
chain: MDVSYLLDSLNDKQREAVAAPRSNLLVLAGAGSGKTRVLVHRIAWLMSVENCSPYSIMAVTFTNKAAAEMRHRIGQLMGTSQGGMWVGTFHGLAHRLLRAHHMDANLPQDFQILDSEDQLRLLKRLIKAMNLDEKQWPPRQAMWYINSQKDEGLRPHHIQSYGNPVEQTWQKVYQAYQEACDRAGLVDFAELLLRAHELWLNKPHILQHYRERFTNILVDEFQDTNNIQYAWIRLLAGDTGKVMIVGDDDQSIYGWRGAQVENIQRFLNDFPGAETIRLEQNYRSTSNILSAANALIENNNGRLGKKLWTDGADGEPISLYCAFNELDEARFVVNRIKTWQDNGGALAECAILYRSNAQSRVLEEALLQASMPYRIYGGMRFFERQEIKDALSYLRLIANRNDDAAFERVVNTPTRGIGDRTLDVVRQTSRDRQLTLWQACRELLQEKALAGRAASALQRFMELIDALAQETADMPLHVQTDRVIKDSGLRTMYEQEKGEKGQTRIENLEELVTATRQFSYNEEDEDLMPLQAFLSHAALEAGEGQADTWQDAVQLMTLHSAKGLEFPQVFIVGMEEGMFPSQMSLDEGGRLEEERRLAYVGVTRAMQKLTLTYAETRRLYGKEVYHRPSRFIGELPEECVEEVRLRATVSRPVSHQRMGTPMVENDSGYKLGQRVRHAKFGEGTIVNMEGSGEHSRLQVAFQGQGIKWLVAAYARLESV
notes: expressed in E. coli BL21(DE3) pLysS; Polymin P, ammonium sulfate, heparin and Sephacryl S-300 purification; no tag mentioned
In the case of B1, the Km is reported as 42.52 ± 13.8 µM.
